Results reported in the supplement of paper PMC7877785.
± gives the uncertainty stated by the source.

Assay: self-splicing fitness, log relative to wild type (ln ratio); higher = more splicing; Tetrahymena group I intron in knt gene, E. coli kanamycin selection, DiMSum; sequences stand for … in CUCUCU…GGAGGGAAAAGUUAUCAGGCAUGCACCUGGUAGCUAGUCUUUAAACCAAUAGAUUGCAUCGGUUUAAAAGGCAAGACCGUCAAAUUGCGGGAAAGGGGUCAACAGCCGUUCAGUACCAAGUCUCAGGGGAAACUUUGAGAUGGCCUUGCAAAGGGUAUGGUAAUAAGCUGACGGACAUGGUCCUAACCACGCAGCCAAGUCCUAAGUCAACAGAUCUUCUGUUGAUAUGGAUGCAGUUCACAGACUAAAUGUCGGUCGGGGAAGAUGUAUUCUUCUCAUAAGAUAUAGUCGGACCUCUCCUUAAUGGGAGCUAGCGGAUGAAGUGAUGCAACACUGGAGCCGCUGGGAACUAAUUUGUAUGCGAAAGUAUAUUGAUUAGUUUUGGAGUACUCGUGGUCG
In short: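 A randomised library covering all eight P1ex-region intron nucleotides was built with the intron in the knt kanamycin-resistance gene on pET-22b(+) and held in E. coli BL21(DE3). Cells were grown overnight at 37°C or 30°C on LB agar, with or without 25 μg/mL kanamycin, plus 100 μg/mL carbenicillin, 50 μM IPTG and 0.2% rhamnose, and pooled colonies were amplicon-sequenced on an Illumina HiSeq 2500. DiMSum fitness is the error-weighted combination of wild-type-normalised replicate fold changes, kanamycin versus none.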

| Sequence | self-splicing fitness (ln) (30 °C) | self-splicing fitness (ln) (37 °C) |
| --- | --- | --- |
| CCACAGCAAUAUUACGUAAC | -3.47 ± 0.2 | -1.35 ± 0.16 |
| GCCUAGCAAUAUUACGCGAG | -2.33 ± 0.21 | -2.29 ± 0.16 |
| GUAAAGCAAUAUUACGGGUU | -1.72 ± 0.13 | -1.86 ± 0.18 |
| GACUAGCAAUAUUACGAGGC | – | -2.23 ± 0.3 |
| AUCCAGCAAUAUUACGUUGG | -4.05 ± 0.18 | -2.97 ± 0.16 |
| UGUCAGCAAUAUUACGUCUU | -0.331 ± 0.071 | -0.0647 ± 0.09 |
| AGAGAGCAAUAUUACGGUAA | -2.95 ± 0.31 | -2.28 ± 0.33 |
| AGAGAGCAAUAUUACGGUUA | -3.1 ± 0.25 | -1.83 ± 0.21 |
| AAAGAGCAAUAUUACGAUCG | -2.55 ± 0.12 | -1.29 ± 0.15 |
| CUAGAGCAAUAUUACGGGGG | -2.64 ± 0.24 | -1.11 ± 0.27 |
| CUCCAGCAAUAUUACGCGAG | -2.19 ± 0.2 | -2.94 ± 0.3 |
| CGCGAGCAAUAUUACGGGGU | -4.28 ± 0.23 | -2.95 ± 0.22 |
| GACUAGCAAUAUUACGCGCA | -0.593 ± 0.16 | -0.286 ± 0.18 |
| ACAUAGCAAUAUUACGGCAC | -1.56 ± 0.11 | -1.2 ± 0.15 |
| AGAAAGCAAUAUUACGGUUU | -0.927 ± 0.068 | -0.0576 ± 0.082 |
| AACUAGCAAUAUUACGGAUA | -2.79 ± 0.25 | -1.2 ± 0.23 |
| AAGCAGCAAUAUUACGGGAG | -3.74 ± 0.16 | -3.05 ± 0.23 |
| AAGCAGCAAUAUUACGUGGC | -4.15 ± 0.39 | -1.92 ± 0.2 |
| CGUAAGCAAUAUUACGACGA | -1.28 ± 0.21 | -1.69 ± 0.24 |

| Sequence | self-splicing fitness (ln) (30 °C) | self-splicing fitness (ln) (37 °C) |
| --- | --- | --- |
| AUCCAGCAAUAUUACGGUAU | -2.88 ± 0.13 | -1.19 ± 0.12 |
| GUUCAGCAAUAUUACGUGGC | -2.08 ± 0.1 | -2.25 ± 0.16 |
| UGGAAGCAAUAUUACGGGUA | -1.67 ± 0.13 | -1.05 ± 0.13 |
| UAUAAGCAAUAUUACGUUUA | -1.03 ± 0.1 | -0.548 ± 0.11 |
| UGCUAGCAAUAUUACGAUAA | -1.64 ± 0.15 | -0.358 ± 0.14 |
| CCUGAGCAAUAUUACGAAAA | -3.64 ± 0.35 | -2.52 ± 0.37 |
| CAUUAGCAAUAUUACGAAGA | -3.8 ± 0.43 | -0.417 ± 0.23 |
| ACAGAGCAAUAUUACGUCAC | -3.39 ± 0.26 | -2.43 ± 0.41 |
| CUGUAGCAAUAUUACGUUGG | -3.56 ± 0.13 | -1.46 ± 0.11 |
| CACCAGCAAUAUUACGGAUC | -1.96 ± 0.08 | -1.32 ± 0.094 |
| UUUCAGCAAUAUUACGGGGC | -2.91 ± 0.18 | -3.35 ± 0.31 |
| UGUGAGCAAUAUUACGGCCA | -0.0854 ± 0.18 | 0.465 ± 0.34 |
| UCCCAGCAAUAUUACGUUGG | -3.37 ± 0.12 | -1.5 ± 0.13 |
| GCAAAGCAAUAUUACGCCCG | -1.23 ± 0.22 | -2.06 ± 0.38 |
| GUCAAGCAAUAUUACGUUCU | -1.88 ± 0.07 | -1.3 ± 0.087 |
| AGUCAGCAAUAUUACGUAUA | -2.69 ± 0.12 | -1.33 ± 0.1 |
| AUAGAGCAAUAUUACGAUAA | -1.23 ± 0.16 | -0.812 ± 0.23 |
| CCUCAGCAAUAUUACGUAUG | -1.75 ± 0.075 | -0.495 ± 0.079 |
| UACGAGCAAUAUUACGCCAU | – | -1.84 ± 0.31 |
